Data as given in patent US20260199443A1, “HISTONE DEACYTLASE 6 MODULATION OF TITIN PROTEIN MEDIATED CARDIAC TISSUE STIFFNESS AND METHOD FOR SAME” (The Regents of the University of Colorado, a Body Corporate, priority 2019, published 2026).
“Also recorded” adds a separate entry of the source. Where two headings read alike, the source gives them in different places.

Tests used:
[1] = system: myofibrils from non-failing human LVs; experiment: Ex vivo treatment of human myofibrils with recombinant PKCα, with or without subsequent recombinant HDAC6, then myofibril mechanics
Description: (§1) Myofibril mechanics were quantified using the fast solution switching technique (47). Frozen LV sections were skinned in 0.5% Triton-X in rigor solution (132 mM NaCl, 5 mM KCl, 1 mM MgCl2, 10 mM Tris, 5 mM EGTA, pH 7.1) containing protease inhibitors (10 μm leupeptin, 5 μm pepstatin, 200 μm PMSF and 10 μm E64), as well as 500 μm NaN3 and 500 μm DTT at 4° C. overnight. Skinned LVs were washed in fresh rigor solution and homogenized (Tissue-Tearor, Thomas Scientific) in relaxing solution (pCa 9.0) containing protease inhibitors. Myofibril suspensions were transferred to a temperature controlled chamber (15° C.) containing relaxing solution (pCa 9.0; 100 mM Na2EGTA; 1 M potassium propionate; 100 mM Na2SO4; 1 M MOPS; 1 M MgCl2; 6.7 mM ATP; and 1 mM creatine phosphate; pH 7.0). Myofibril bundles were mounted between two micro-tools. One tool was connected to a motor that could produce rapid length changes (Mad City Labs). The second tool was a calibrated cantilevered force probe (7-10 μm/μN; frequency response 2-5 KHz). Myofibrils were set 5-10% above slack myofibril length. Average sarcomere lengths and myofibril diameters were measured using ImageJ software. Mounted myofibrils were activated and relaxed by rapidly translating the interface between two flowing streams of solutions of different pCa. Data were collected and analyzed using customized Lab View software. Measured mechanical and kinetic parameters were defined as follows: resting tension (mN/mm^2)=myofibril basal tension in fully relaxing condition; maximal tension (mN/mm^2)=maximal tension generated at full calcium activation (pCa 4.5); the rate constant of tension development following maximal calcium activation=kACT; and relaxation parameters were defined as: duration of the linear relaxation=linear duration, and the rate constant of exponential relaxation=fast kREL. For, myofibril resting tension-to-sarcomere length curves, each myofibril was stretched incrementally to determine the resting tension at different sarcomere lengths, and a resting tension-sarcomere length relationship was measured. […]

rat myofibrils (titin) = experiment: Ex vivo incubation of purified rat myofibrils with recombinant enzyme, then myofibril mechanics; conditions: 30 minutes
Description: as §1, with “Myofibril suspensions were transferred to a temperature controlled chamber (15° C.) containing relaxing solution (pCa 9.0; 100 mM Na2EGTA; 1 M potassium propionate; 100 mM Na2SO4; 1 M MOPS; 1 M MgCl2; 6.7 mM ATP; and 1 mM creatine phosphate; pH 7.0). Myofibril bundles were mounted between two micro-tools. One tool was connected to a motor that could produce rapid length changes (Mad City Labs). The second tool was a calibrated cantilevered force probe (7-10 μm/μN; frequency response 2-5 KHz). Myofibrils were set 5-10% above slack myofibril length.” left out, “Mounted myofibrils were activated and relaxed by rapidly translating the interface between two flowing streams of solutions of different pCa.” left out

[2] = system: WT mouse left ventricle myofibrils (titin); experiment: Ex vivo treatment of WT mouse LV myofibrils with recombinant HDAC6, then myofibril mechanics; conditions: 30 minutes, listed as rHDAC6
Description: as §1, with “Myofibril suspensions were transferred to a temperature controlled chamber (15° C.) containing relaxing solution (pCa 9.0; 100 mM Na2EGTA; 1 M potassium propionate; 100 mM Na2SO4; 1 M MOPS; 1 M MgCl2; 6.7 mM ATP; and 1 mM creatine phosphate; pH 7.0). Myofibril bundles were mounted between two micro-tools. One tool was connected to a motor that could produce rapid length changes (Mad City Labs). The second tool was a calibrated cantilevered force probe (7-10 μm/μN; frequency response 2-5 KHz). Myofibrils were set 5-10% above slack myofibril length.” left out, “Mounted myofibrils were activated and relaxed by rapidly translating the interface between two flowing streams of solutions of different pCa.” left out

[3] = system: myofibrils from mice lacking the PEVK region of titin; experiment: Ex vivo treatment of PEVK KO mouse LV myofibrils with recombinant HDAC6, then myofibril mechanics; conditions: 30 minutes
Description: as §1, with “Myofibril suspensions were transferred to a temperature controlled chamber (15° C.) containing relaxing solution (pCa 9.0; 100 mM Na2EGTA; 1 M potassium propionate; 100 mM Na2SO4; 1 M MOPS; 1 M MgCl2; 6.7 mM ATP; and 1 mM creatine phosphate; pH 7.0). Myofibril bundles were mounted between two micro-tools. One tool was connected to a motor that could produce rapid length changes (Mad City Labs). The second tool was a calibrated cantilevered force probe (7-10 μm/μN; frequency response 2-5 KHz). Myofibrils were set 5-10% above slack myofibril length.” left out, “Mounted myofibrils were activated and relaxed by rapidly translating the interface between two flowing streams of solutions of different pCa.” left out

[4] = system: human myofibrils from non-failing donor left ventricle (titin); experiment: Ex vivo treatment of human LV myofibrils with recombinant HDAC6, then myofibril mechanics
Description: as §1, with “Myofibril suspensions were transferred to a temperature controlled chamber (15° C.) containing relaxing solution (pCa 9.0; 100 mM Na2EGTA; 1 M potassium propionate; 100 mM Na2SO4; 1 M MOPS; 1 M MgCl2; 6.7 mM ATP; and 1 mM creatine phosphate; pH 7.0). Myofibril bundles were mounted between two micro-tools. One tool was connected to a motor that could produce rapid length changes (Mad City Labs). The second tool was a calibrated cantilevered force probe (7-10 μm/μN; frequency response 2-5 KHz). Myofibrils were set 5-10% above slack myofibril length.” left out, “Mounted myofibrils were activated and relaxed by rapidly translating the interface between two flowing streams of solutions of different pCa.” left out

[5] = system: PKC-driven phosphorylation of sacromeric proteins; experiment: Immunoblot with anti-PKC substrate antibody of treated human myofibril proteins; type: biochemical; conditions: human myofibrils, PKCα followed by HDAC6
Description: FIG. 3E is an immunoblot performed with an anti-PKC substrate antibody and solubilized proteins from myofibrils treated as indicated in the protocol illustrated in FIG. 3B.
Elevated PEVK phosphorylation is s associated with increased cardiomyocyte passive stiffness in pre-clinical models and in human heart failure (7). To begin to address the therapeutic potential of HDAC6 gain-of-function, an ex vivo experiment was performed to determine whether HDAC6 is capable of overriding the cardiac stiffening effect of PKC. Myofibrils obtained from non-failing human LVs were pretreated with recombinant PKCα, washed, and then incubated with recombinant HDAC6 (FIG. 3B).

[6] = system: adult rat ventricular myocytes (ARVMs); experiment: Myofibril resting tension after 24 hour treatment of cultured ARVMs; type: cell-based; conditions: myofibrils isolated from ARVMs treated for 24 hours
HDAC6 = target: T1, HDAC6 (Rattus norvegicus, UniProt A0A8I6GM68); experiment: Tubulin acetylation in treated ARVMs as a marker of HDAC6 inhibition (immunofluorescence, immunoblot); type: cell-based; conditions: ARVMs treated for 24 hours
T1 construct: endogenous in cells; host or cells: adult rat ventricular myocytes (ARVMs) from Sprague Dawley rats
T1 sequence (A0A8I6GM68 whole entry): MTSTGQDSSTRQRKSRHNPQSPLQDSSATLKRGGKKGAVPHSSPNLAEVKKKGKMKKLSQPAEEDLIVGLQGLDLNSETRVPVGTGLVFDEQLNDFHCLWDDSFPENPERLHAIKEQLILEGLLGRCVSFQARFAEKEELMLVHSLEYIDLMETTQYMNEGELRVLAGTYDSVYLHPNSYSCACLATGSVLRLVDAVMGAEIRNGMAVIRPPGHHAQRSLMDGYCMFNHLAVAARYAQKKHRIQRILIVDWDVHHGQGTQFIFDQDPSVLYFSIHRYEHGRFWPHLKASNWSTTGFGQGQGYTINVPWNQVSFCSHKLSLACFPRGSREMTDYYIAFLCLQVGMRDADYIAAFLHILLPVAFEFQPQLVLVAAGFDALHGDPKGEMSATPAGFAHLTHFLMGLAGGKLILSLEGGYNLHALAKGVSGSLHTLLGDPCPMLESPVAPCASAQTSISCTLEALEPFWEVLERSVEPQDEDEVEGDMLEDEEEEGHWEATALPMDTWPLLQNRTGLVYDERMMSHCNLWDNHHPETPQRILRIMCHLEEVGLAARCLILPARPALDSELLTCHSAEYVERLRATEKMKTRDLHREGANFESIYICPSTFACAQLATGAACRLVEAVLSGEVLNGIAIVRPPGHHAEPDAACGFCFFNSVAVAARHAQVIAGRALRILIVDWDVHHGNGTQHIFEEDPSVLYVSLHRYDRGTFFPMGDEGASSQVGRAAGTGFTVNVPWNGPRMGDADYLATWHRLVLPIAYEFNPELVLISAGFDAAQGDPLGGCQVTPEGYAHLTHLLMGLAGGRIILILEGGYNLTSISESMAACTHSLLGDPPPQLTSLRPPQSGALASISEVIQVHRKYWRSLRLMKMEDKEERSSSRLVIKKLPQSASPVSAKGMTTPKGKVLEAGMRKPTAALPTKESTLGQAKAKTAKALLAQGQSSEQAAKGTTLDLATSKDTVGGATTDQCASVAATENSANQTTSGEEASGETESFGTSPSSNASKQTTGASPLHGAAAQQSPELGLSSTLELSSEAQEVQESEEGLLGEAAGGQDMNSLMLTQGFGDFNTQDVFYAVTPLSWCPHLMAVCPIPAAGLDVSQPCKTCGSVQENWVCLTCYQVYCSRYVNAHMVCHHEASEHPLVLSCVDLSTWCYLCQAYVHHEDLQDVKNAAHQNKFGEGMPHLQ
Source text: FIG. 1K are images of immunoblot analysis of acetyl-tubulin and total tubulin in whole-cell homogenates from treated ARVMs.

[7] = system: diastolic dysfunction in murine models; conditions: murine models of hypertension and aging, reference (21); cited from earlier work

For “PKCα: recombinant PKCα (0.066 U/μL, Millipore 14-484) with lipid activator”, the “myofibril resting tension at physiologic sarcomere length” value ([1]; human myofibrils treated with recombinant PKCα alone) was “dramatically increased”.

With “recombinant HDAC6: recombinant HDAC6 (1 μg/μL, BPS Bioscience) used for ex vivo treatment of myofibrils” the “titin stiffness / myofibril compliance” value (rat myofibrils (titin)) was “reduced titin stiffness; also recorded: increases myofibril compliance”, the myofibril compliance [2] was “increased compliance” and the “response of myofibril stiffness to HDAC6” value [3] was “completely resistant”. For the same compound, the “myofibril compliance / cardiomyocyte passive stiffness” value [4] was “increases myofibril compliance”, the “myofibril compliance / cardiomyocyte passive stiffness” value ([4]; listed as rHDAC6) was “conserved ability of this deacetylase to control cardiomyocyte passive stiffness” and the “PKC-induced leftward shift in the sarcomere length-to-resting tension curve” value ([1]; human myofibrils pretreated with recombinant PKCα, then recombinant HDAC6) was “largely blocked”. For the same compound, the “PKCα-induced stiffening (resting tension at physiologic sarcomere length)” value ([1]; human myofibrils pretreated with recombinant PKCα, washed, then incubated with recombinant HDAC6) was “completely normalized” and the “PKC-driven phosphorylation of sacromeric proteins” value [5] was “without affecting”.

For “HDAC2: recombinant HDAC2 used as control in the ex vivo myofibril assay”, the “titin stiffness / myofibril compliance” value (rat myofibrils (titin)) was “not”.

For `CN1CCc2c(c3ccccc3n2Cc2ccc(C(=O)NO)cc2)C1` [tubastatin A], the “myofibril resting tension / myofibril stiffness” value [6] was “elevated resting tension; also recorded: dramatically increased resting tension” and the “tubulin acetylation as a marker of HDAC6 inhibition” value (HDAC6) was “inhibited HDAC6 equivalently”.

For `CCN(CC)Cc1ccc2cc(COC(=O)Nc3ccc(C(=O)NO)cc3)ccc2c1` [givinostat, [6-(diethylaminomethyl)naphthalen-2-yl] methyl N-[4-(hydroxycarbamoyl)phenyl] carbamate], the “myofibril resting tension / myofibril stiffness” value [6] is given as “no effect” and the diastolic dysfunction [7] is given as “ameliorates rather than exacerbates diastolic dysfunction”.
